Abundance fitness data for 47 variants are collected here from the Human Domainome abundance scans (Beltran et al. 2025).

± gives the uncertainty stated by the source.

To fix the notation:
B1: 1-phosphatidylinositol 4,5-bisphosphate phosphodiesterase gamma-2, residues 772 to 827; numbered along this chain, P16885 (parent)
chain: RTVKALYDYKAKRSDELSFCRGALIHNVSKEPGGWWKGDYGTRIQQYFPSNYVEDI

The variants in the series derive from B1. The series is described as follows: abundance fitness (aPCA) (normalised: wild type 0, dead -1); higher = more abundant; growth selection in yeast, the domain comes from the species named. Particulars: Homo sapiens.
Consider RTVKALYDYKAKRSDELSFCRGALIHNVSKEPGGWWKGDYGTRIQQYFPSWYVEDI [N51W], for which the abundance fitness is -0.022 ± 0.054. The value for RTVKALYDYKAKRSDELSFCRGALIHNVSKEPGGWWKGDYGTRIQQYFPSVYVEDI [N51V] was -0.134 ± 0.076; that for RTVKALYDYKAKRSDELSFCRGALIHNVSKEPGGWWKGDYGTRIQQYFPSFYVEDI [N51F] was -0.398 ± 0.33; that for RTVKALYDYKAKRSDELSFCRGALIHNVSKEPGGWWKGDYGTRIQQYFPSEYVEDI [N51E] was 0.094 ± 0.065. For the variant RTVKALYDYKAKRSDELSFCRGALIHNVSKEPGGWWKGDYGTRIQQYFPSHYVEDI [N51H], the abundance fitness was 0.208 ± 0.11. As to RTVKALYDYKAKRSDELSFCRGALIHNVSKEPGGWWKGDYGTRIQQIFPSNYVEDI [Y47I], the abundance fitness was -0.607 ± 0.25. Take RTVKALYDYKAKRSDELSFCRGALIHNVSKEPGGWWKGDYGTRIQQVFPSNYVEDI [Y47V]: the abundance fitness was -0.34 ± 0.076. The value for RTVKALYDYKAKRSDELSFCRGALIHNVSKEPGGWWKGDYGTRIQQNFPSNYVEDI [Y47N] was -0.256 ± 0.19. For the variant RTVKALYDYKAKRSDELSFCRGALIHNVSKEPGGWWKGDYGTRIQQHFPSNYVEDI [Y47H], the abundance fitness is -0.437 ± 0.18. Regarding RTVKALYDYKAKRSDELSFCRGALIHNVSKEPGGWWKGDYGTRIQQFFPSNYVEDI [Y47F], the abundance fitness was -0.051 ± 0.085. Regarding RTVKALYDYKAKRSDELSFCRGALIHNVSKEPGGWWKGDYGTRIQQRFPSNYVEDI [Y47R], the abundance fitness was found to be 0.076 ± 0.063. The value for RTVKALYDYKAKRSDELSFCRGALIHNVSKEPGGWWKGDYGTRIQQGFPSNYVEDI [Y47G] was -0.604 ± 0.098. The value for RTVKALYDYKAKRSDELSFCRGALIHNVSKEPGGWWKGDYGTRIQQQFPSNYVEDI [Y47Q] was -0.167 ± 0.15. For the variant RTVKALYDYKAKRSDELSFCRGALIHNVSKEPGGWWKGDYGTRIQQLFPSNYVEDI [Y47L], the abundance fitness amounted to 0.002 ± 0.056. In the case of RTVKALYDYKAKRSDELSFCRGALIHNVSKEPGGWWKGDYGTRIQQDFPSNYVEDI [Y47D], the abundance fitness is -0.763 ± 0.17. The value for RTVKALYDYKAKRSDELSFCRGALIHNVSKEPGGWWKGDYGTRIQQSFPSNYVEDI [Y47S] was -0.293 ± 0.082; that for RTVKALYDYKAKRSDELSFCRGALIHNVSKEPGGWWKGDYGTRIQQMFPSNYVEDI [Y47M] was -0.417 ± 0.19; that for RTVKALYDYKAKRSDELSFCRGALIHNVSKEPGGWWKGDYGTRIQQEFPSNYVEDI [Y47E] was -0.672 ± 0.21. On to RTVKALYDYKAKRSDELSFCRGALIHNVSKEPGGWWKGDYGTRIQQYFPSNYREDI [V53R], for which the abundance fitness is -0.836 ± 0.12. RTVKALYDYKAKRSDELSFCRGALIHNVSKEPGGWWKGDYGTRIQQYFPSNYFEDI [V53F]: the abundance fitness was -0.803 ± 0.37. Consider RTVKALYDYKAKRSDELSFCRGALIHNVSKEPGGWWKGDYGTRIQQYFPSNYLEDI [V53L], for which the abundance fitness was -0.876 ± 0.12. For the variant RTVKALYDYKAKRSDELSFCRGALIHNVSKEPGGWWKGDYGTRIQQYFPSNYHEDI [V53H], the abundance fitness is -0.947 ± 0.34. The value for RTVKALYDYKAKRSDELSFCRGALIHNVSKEPGGWWKGDYGTRIQQYFPSNYQEDI [V53Q] was -0.731 ± 0.35; that for RTVKALYDYKAKRSDELSFCRGALIHNVSKEPGGWWKGDYGTRIQQYFPSNYAEDI [V53A] was -0.442 ± 0.093. Consider RTVKALYDYKAKRSDELSFCRGALIHNVSKEPGGWWKGDYGTRIQQYFPSNYGEDI [V53G], for which the abundance fitness was -0.923 ± 0.073. In the case of RTVKALYDYKAKRSDELSFCRGALIHNVSKEPGGWWKGDYGTRIQQYFPSNYEEDI [V53E], the abundance fitness is -0.934 ± 0.28. The value for RTVKALYDYKAKRSDELSFCRGALIHNVSKEPGGWWKGDYGTRIQQYFPSNYTEDI [V53T] was -0.177 ± 0.091; that for RTVKALYDYKAKRSDELSFCRGALIHNVSKEPGGWWKGDYGTRIQQYFPSNYDEDI [V53D] was -0.823 ± 0.25; that for RTVKALYDYKAKRSDELSFCRGALIHNVSKEPGGWWKGDYGTRIQQYFPSNYPEDI [V53P] was -1.02 ± 0.32. Take RTVKALYDYKAKRSDELSFCRGALIHNVSKEPGGWWKGDYGTRIQQYFPSNYKEDI [V53K]: the abundance fitness is -0.979 ± 0.15. RTVKALYDYKAKRSDELSFCRGALIHNVSKEPGGWWKGDYGTRIQQYFPSNYMEDI [V53M]: the abundance fitness is -0.731 ± 0.22.

On to RTVKALYDYKAKRSDELSFCRGALIHNVSKEPGGWWKGDYGTRIQQYFPINYVEDI [S50I], for which the abundance fitness was -0.261 ± 0.096. RTVKALYDYKAKRSDELSFCRGALIHNVSKEPGGWWKGDYGTRIQQYFPQNYVEDI [S50Q]: the abundance fitness is -0.398 ± 0.15. Regarding RTVKALYDYKAKRSDELSFCRGALIHNVSKEPGGWWKGDYGTRIQQYFPKNYVEDI [S50K], the abundance fitness is 0.103 ± 0.12. As for RTVKALYDYKAKRSDELSFCRGALIHNVSKEPGGWWKGDYGTRIQQYFPDNYVEDI [S50D], the abundance fitness is -0.506 ± 0.12. The value for RTVKALYDYKAKRSDELSFCRGALIHNVSKEPGGWWKGDYGTRIQQYFPTNYVEDI [S50T] was -0.352 ± 0.071. Consider RTVKALYDYKAKRSDELSFCRGALIHNVSKEPGGWWKGDYGTRIQQYFPLNYVEDI [S50L], for which the abundance fitness is -0.737 ± 0.13. The value for RTVKALYDYKAKRSDELSFCRGALIHNVSKEPGGWWKGDYGTRIQQYFPGNYVEDI [S50G] was -0.093 ± 0.058; that for RTVKALYDYKAKRSDELSFCRGALIHNVSKEPGGWWKGDYGTRIQQYFPANYVEDI [S50A] was 0.221 ± 0.095. As for RTVKALYDYKAKRSDELSFCRGALIHNVSKEPGGWWKGDYGTRIQQYFPYNYVEDI [S50Y], the abundance fitness turned out to be 0.057 ± 0.098. The value for RTVKALYDYKAKRSDELSFCRGALIHNVSKEPGGWWKGDYGTRIQQYFPCNYVEDI [S50C] was -0.18 ± 0.1.

Consider RTVKALYDYKAKRSDELSFCRGALIHNVSKEPGGWWKGDYGTRIQQYFPWNYVEDI [S50W], for which the abundance fitness is -0.412 ± 0.088. Regarding RTVKALYDYKAKRSDELSFCRGALIHNVSKEPGGWWKGDYGTRIQQYFPPNYVEDI [S50P], the abundance fitness is -0.241 ± 0.081. Turning to RTVKALYDYKAKRSDELSFCRGALIHNVSKEPGGWWKGDYGTRIQQYFPMNYVEDI [S50M], the abundance fitness came to 0.071 ± 0.1.

On to RTVKALYDYKAKRSDELSFCRGALIHNVSKEPGGWWKGDYGTRIQQYFPFNYVEDI [S50F], for which the abundance fitness is -0.181 ± 0.061. As for RTVKALYDYKAKRSDELSFCRGALIHNVSKEPGGWWKGDYGTRIQQYFPRNYVEDI [S50R], the abundance fitness was determined as 0.035 ± 0.062. As to RTVKALYDYKAKRSDELSFCRGALIHNVSKEPGGWWKGDYGTRIQQYFPHNYVEDI [S50H], the abundance fitness is -0.163 ± 0.19.
